Results published in publication PMC3554864.

Molecular target: NS3 helicase (NS3, with protease domain) (Hepatitis C virus (genotype ), UniProt Q9WMX2 1027-1657)
Experiment: KMnO4 footprinting

Sequence of NS3 helicase (NS3, with protease domain) (Q9WMX2 1027-1657): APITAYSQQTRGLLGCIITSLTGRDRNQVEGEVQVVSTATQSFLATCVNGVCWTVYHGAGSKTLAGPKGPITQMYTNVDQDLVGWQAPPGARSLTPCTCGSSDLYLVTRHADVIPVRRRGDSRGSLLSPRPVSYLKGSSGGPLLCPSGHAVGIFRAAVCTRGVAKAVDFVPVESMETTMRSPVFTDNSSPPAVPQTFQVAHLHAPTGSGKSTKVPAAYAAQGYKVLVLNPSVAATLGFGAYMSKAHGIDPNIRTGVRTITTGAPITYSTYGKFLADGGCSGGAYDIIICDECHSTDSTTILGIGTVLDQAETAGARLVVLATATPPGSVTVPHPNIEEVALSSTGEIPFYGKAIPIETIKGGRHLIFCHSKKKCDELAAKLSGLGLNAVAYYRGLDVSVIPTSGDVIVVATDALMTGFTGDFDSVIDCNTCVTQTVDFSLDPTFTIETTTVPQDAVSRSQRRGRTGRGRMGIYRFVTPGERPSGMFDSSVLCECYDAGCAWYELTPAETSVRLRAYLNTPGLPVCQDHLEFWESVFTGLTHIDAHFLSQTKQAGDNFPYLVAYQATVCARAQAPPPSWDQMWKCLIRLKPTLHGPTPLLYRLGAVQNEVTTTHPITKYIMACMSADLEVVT

B1: 30mer blunt duplex (dsDNA)
DNA 1: GCTCTCTGTCTGTCTGTGTCTCTGTCTCTG
DNA 2: CAGAGACAGAGACACAGACAGACAGAGAGC
modifications: biotin (position not stated for this duplex)
- binding result: binds
